Patent US20080125498A1, “TREATMENT OF NEURODEGENERATIVE DISEASES AND CONDITIONS USING PAR1 ANTAGONISTS” (priority 2001, published 2008)

Tested on: PAR1
Assay: PI hydrolysis in hippocampal slices
Type: cell-based, mouse
Description: PAR1 is a seven transmembrane G-protein coupled receptor that stimulates G-alpha-q to initiate phosphatidyl inositol (PI) hydrolysis. To ensure that PAR1 is functional in regions of the brain that are subject to ischemic damage in the mouse transient focal ischemia model, we tested the ability of several activators of PAR1 to initiate PI hydrolysis (Chung et al., 1997) in the hippocampus and striatum.
Since tPA activates plasminogen to form plasmin, we tested whether exogenously applied tPA could activate endogenous plasminogen in brain slices to form plasmin and activate PAR1.

[1] = wild type hippocampus / hippocampal slices

Row | Molecule | PI hydrolysis [1] | inhibition of tPA-induced increase in PI hydrolysis (wild type hippocampal slices) | PI hydrolysis (plasminogen-deficient mice)
1 | plasmin: serine protease involved in blood clotting that can activate PAR1 (protein, UniProt P00747 20-580; P00747 581-810, looked up, plasmin) Plasmin heavy chain A: EPLDDYVNTQGASLFSVTKKQLGAGSIEECAAKCEEDEEFTCRAFQYHSKEQQCVIMAENRKSSIIIRMRDVVLFEKKVYLSECKTGNGKNYRGTMSKTKNGITCQKWSSTSPHRPRFSPATHPSEGLEENYCRNPDNDPQGPWCYTTDPEKRYDYCDILECEEECMHCSGENYDGKISKTMSGLECQAWDSQSPHAHGYIPSKFPNKNLKKNYCRNPDRELRPWCFTTDPNKRWELCDIPRCTTPPPSSGPTYQCLKGTGENYRGNVAVTVSGHTCQHWSAQTPHTHNRTPENFPCKNLDENYCRNPDGKRAPWCHTTNSQVRWEYCKIPSCDSSPVSTEQLAPTAPPELTPVVQDCYHGDGQSYRGTSSTTTTGKKCQSWSSMTPHRHQKTPENYPNAGLTMNYCRNPDADKGPWCFTTDPSVRWEYCNLKKCSGTEASVVAPPPVVLLPDVETPSEEDCMFGNGKGYRGKRATTVTGTPCQDWAAQEPHRHSIFTPETNPRAGLEKNYCRNPDGDVGGPWCYTTNPRKLYDYCDVPQCAAPSFDCGKPQVEPKKCPGR Plasmin light chain B: VVGGCVAHPHSWPWQVSLRTRFGMHFCGGTLISPEWVLTAAHCLEKSPRPSSYKVILGAHQEVNLEPHVQEIEVSRLFLEPTRKDIALLKLSSPAVITDKVIPACLPSPNYVVADRTECFITGWGETQGTFGAGLLKEAQLPVIENKVCNRYEFLNGRVQSTELCAGHLAGGTDSCQGDSGGPLVCFEKDKYILQGVTSWGLGCARPNKPGVYVRVSRFVTWIEGVMRNN | increased PI hydrolysis |  | 
2 | alpha-2-antiplasmin: plasmin inhibitor (protein, UniProt P08697 40-491, looked up) Alpha-2-antiplasmin: NQEQVSPLTLLKLGNQEPGGQTALKSPPGVCSRDPTPEQTHRLARAMMAFTADLFSLVAQTSTCPNLILSPLSVALALSHLALGAQNHTLQRLQQVLHAGSGPCLPHLLSRLCQDLGPGAFRLAARMYLQKGFPIKEDFLEQSEQLFGAKPVSLTGKQEDDLANINQWVKEATEGKIQEFLSGLPEDTVLLLLNAIHFQGFWRNKFDPSLTQRDSFHLDEQFTVPVEMMQARTYPLRWFLLEQPEIQVAHFPFKNNMSFVVLVPTHFEWNVSQVLANLSWDTLHPPLVWERPTKVRLPKLYLKHQMDLVATLSQLGLQELFQAPDLRGISEQSLVVSGVQHQSTLELSEVGVEAAAATSIAMSRMSLSSFSVNRPFLFFIFEDTTGLPLFVGSVRNPNPSAPRELKEQQDSPGNKDFLQSLKGFPRGDKLFGPDLKLVPPMEEDYPQFGSPK |  | inhibited the tPA-induced increase in PI hydrolysis | 
3 | tPA: tissue plasminogen activator; activates plasminogen to form plasmin; thrombolytic agent (protein, UniProt P00750 36-562, looked up) Tissue-type plasminogen …: SYQVICRDEKTQMIYQQHQSWLRPVLRSNRVEYCWCNSGRAQCHSVPVKSCSEPRCFNGGTCQQALYFSDFVCQCPEGFAGKCCEIDTRATCYEDQGISYRGTWSTAESGAECTNWNSSALAQKPYSGRRPDAIRLGLGNHNYCRNPDRDSKPWCYVFKAGKYSSEFCSTPACSEGNSDCYFGNGSAYRGTHSLTESGASCLPWNSMILIGKVYTAQNPSAQALGLGKHNYCRNPDGDAKPWCHVLKNRRLTWEYCDVPSCSTCGLRQYSQPQFRIKGGLFADIASHPWQAAIFAKHRRSPGERFLCGGILISSCWILSAAHCFQERFPPHHLTVILGRTYRVVPGEEEQKFEVEKYIVHKEFDDDTYDNDIALLQLKSDSSRCAQESSVVRTVCLPPADLQLPDWTECELSGYGKHEALSPFYSERLKEAHVRLYPSSRCTSQHLLNRTVTDNMLCAGDTRSGGPQANLHDACQGDSGGPLVCLNDGRMTLVGIISWGLGCGQKDVPGVYTKVTNYLDWIRDNMRP | significantly increased PI hydrolysis |  | did not increase PI hydrolysis
